As usually defined, the Kd is the equilibrium constant for the complex coming apart. A high value points to a looser complex.

Experiment in all cases: EMSA
Common to all, as to settings: tags: MBP fusion
On the technique in general: A gel shift assay detects complexes by their altered migration in electrophoresis.

One data set has as its target T1, ZFP SBS#842 (synthetic, UniProt P08047).
T1 chain: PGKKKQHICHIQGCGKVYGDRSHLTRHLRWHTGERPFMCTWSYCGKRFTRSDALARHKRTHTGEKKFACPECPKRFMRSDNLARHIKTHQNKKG
An outline of the steps: (§1)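 Purified ZFP was titrated against labeled double-stranded target (1 nM or lower, at least 10-fold below expected Kd) carrying the natural binding site with flanks. Binding buffer was 10 mM Tris pH 7.5, 100 mM KCl, 1 mM MgCl2, 0.1 mM ZnCl2, 5 mM DTT, 10% glycerol, 0.02% BSA, with equilibration for at least 45 min. Bound and free target were separated on a 10% polyacrylamide gel.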

For another data set, the target named is T2, ZFP SBS#887 (synthetic).
T2 chain: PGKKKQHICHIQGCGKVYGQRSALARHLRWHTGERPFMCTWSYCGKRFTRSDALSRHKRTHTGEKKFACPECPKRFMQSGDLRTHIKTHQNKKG
An outline of the steps: as §1

A further data set concerns the target T3, ZFP SBS#891 (synthetic).
T3 chain: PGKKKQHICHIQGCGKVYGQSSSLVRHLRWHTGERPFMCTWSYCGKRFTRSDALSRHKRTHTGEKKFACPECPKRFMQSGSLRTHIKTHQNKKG
An outline of the steps:
as §1

In the next data set the target is T4, ZFP SBS#894 (synthetic).
T4 chain: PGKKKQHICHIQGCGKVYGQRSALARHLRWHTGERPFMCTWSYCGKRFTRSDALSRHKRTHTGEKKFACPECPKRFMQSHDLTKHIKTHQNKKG
The method, boiled down:
as §1

For another data set, the target named is T5, ZFP SBS#888 (synthetic).
T5 chain: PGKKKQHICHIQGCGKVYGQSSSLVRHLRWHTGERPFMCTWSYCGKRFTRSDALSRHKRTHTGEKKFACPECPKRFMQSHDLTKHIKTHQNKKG
An outline of the steps: as §1

The next data set addresses ZFP SBS#588 (synthetic, UniProt P08047). The method, boiled down: as §1
For the next data set, the target named is T6, ZFP SBS#670 (synthetic).
T6 chain: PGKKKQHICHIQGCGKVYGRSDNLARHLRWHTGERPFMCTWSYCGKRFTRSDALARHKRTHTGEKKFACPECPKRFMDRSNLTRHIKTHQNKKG
An outline of the steps: as §1

The target of a further data set is ZFP SBS#673 (synthetic). An outline of the steps: as §1
The next data set has as its target T7, ZFP SBS#278 (synthetic).
T7 chain: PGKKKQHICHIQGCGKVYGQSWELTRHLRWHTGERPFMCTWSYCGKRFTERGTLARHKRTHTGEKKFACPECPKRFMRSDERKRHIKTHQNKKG
The method, boiled down:
as §1

The target in a further data set is T8, ZFP SBS#277 (synthetic).
T8 chain: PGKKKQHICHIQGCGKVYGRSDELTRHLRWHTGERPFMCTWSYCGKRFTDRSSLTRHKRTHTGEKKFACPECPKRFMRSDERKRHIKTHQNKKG
An outline of the steps: as §1

The next data set has as its target T9, ZFP SBS#279 (synthetic).
T9 chain: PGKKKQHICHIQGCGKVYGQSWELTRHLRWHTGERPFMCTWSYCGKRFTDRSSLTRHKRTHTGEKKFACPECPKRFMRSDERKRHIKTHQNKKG
The method, boiled down:
as §1

Another data set addresses T10, ZFP SBS#280 (synthetic).
T10 chain: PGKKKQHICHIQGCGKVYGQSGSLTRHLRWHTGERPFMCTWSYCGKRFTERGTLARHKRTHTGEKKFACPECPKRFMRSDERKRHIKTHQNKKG
The method, boiled down: as §1

In another data set the target is T11, ZFP SBS#281 (synthetic).
T11 chain: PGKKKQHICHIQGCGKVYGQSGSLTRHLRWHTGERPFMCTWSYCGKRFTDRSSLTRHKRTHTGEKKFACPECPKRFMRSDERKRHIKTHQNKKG
The method, boiled down: as §1

Another data set has as its target T12, ZFP SBS#252 (synthetic).
T12 chain: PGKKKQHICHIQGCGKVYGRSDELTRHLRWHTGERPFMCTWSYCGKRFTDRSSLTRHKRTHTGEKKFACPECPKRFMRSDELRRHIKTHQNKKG
An outline of the steps:
as §1

The next data set deals with T13, ZFP SBS#276 (synthetic).
T13 chain: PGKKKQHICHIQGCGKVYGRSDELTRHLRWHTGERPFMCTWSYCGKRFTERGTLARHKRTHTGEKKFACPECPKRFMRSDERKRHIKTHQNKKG
The method, boiled down: as §1

A further data set has as its target T14, ZFP SBS#828 (synthetic).
T14 chain: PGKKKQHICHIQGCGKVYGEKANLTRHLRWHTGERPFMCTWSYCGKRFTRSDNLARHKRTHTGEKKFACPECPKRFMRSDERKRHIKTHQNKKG
An outline of the steps:
as §1

The next data set concerns the target T15, ZFP SBS#829 (synthetic).
T15 chain: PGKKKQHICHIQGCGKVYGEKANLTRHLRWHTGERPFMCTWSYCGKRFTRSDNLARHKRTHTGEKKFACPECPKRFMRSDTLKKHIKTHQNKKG
An outline of the steps: as §1

The target in a further data set is T16, ZFP SBS#595 (synthetic).
T16 chain: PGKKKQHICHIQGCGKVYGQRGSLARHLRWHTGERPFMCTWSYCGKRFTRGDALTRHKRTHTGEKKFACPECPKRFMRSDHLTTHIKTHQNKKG
The method, boiled down:
as §1

Another data set has as its target ZFP SBS#850 (synthetic). An outline of the steps: as §1
For another data set, the target named is T17, ZFP SBS#672 (synthetic).
T17 chain: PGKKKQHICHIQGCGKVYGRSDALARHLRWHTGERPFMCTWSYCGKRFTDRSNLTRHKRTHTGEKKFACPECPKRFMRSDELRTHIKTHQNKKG
An outline of the steps: as §1

The target in the next data set is T18, ZFP SBS#817 (synthetic).
T18 chain: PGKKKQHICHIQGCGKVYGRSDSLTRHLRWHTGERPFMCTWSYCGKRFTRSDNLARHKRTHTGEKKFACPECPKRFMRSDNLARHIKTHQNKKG
The method, boiled down: as §1

The target of another data set is T19, ZFP SBS#884 (synthetic).
T19 chain: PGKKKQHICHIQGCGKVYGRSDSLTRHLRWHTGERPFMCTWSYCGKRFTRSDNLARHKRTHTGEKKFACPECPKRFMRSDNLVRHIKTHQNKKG
The method, boiled down: as §1

The target in a further data set is T20, ZFP SBS#897 (synthetic).
T20 chain: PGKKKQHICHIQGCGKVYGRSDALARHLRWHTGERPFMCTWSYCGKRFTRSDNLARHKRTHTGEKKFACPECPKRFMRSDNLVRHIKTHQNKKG
An outline of the steps: as §1

The next data set deals with T21, ZFP SBS#668 (synthetic).
T21 chain: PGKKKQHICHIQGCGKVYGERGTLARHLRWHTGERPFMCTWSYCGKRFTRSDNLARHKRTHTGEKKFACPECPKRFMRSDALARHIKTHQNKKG
The method, boiled down: as §1

A further data set concerns the target T22, ZFP SBS#527 (synthetic, UniProt P08047).
T22 chain: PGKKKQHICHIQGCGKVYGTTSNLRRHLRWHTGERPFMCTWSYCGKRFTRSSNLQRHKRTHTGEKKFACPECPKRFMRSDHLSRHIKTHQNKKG
The method, boiled down: as §1

The target in another data set is T23, ZFP SBS#606 (synthetic, UniProt P08047).
T23 chain: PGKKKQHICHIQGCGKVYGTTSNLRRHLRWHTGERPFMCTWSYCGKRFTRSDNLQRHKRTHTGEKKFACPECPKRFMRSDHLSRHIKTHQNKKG
An outline of the steps: as §1

The target in another data set is T24, ZFP SBS#528 (synthetic, UniProt P08047).
T24 chain: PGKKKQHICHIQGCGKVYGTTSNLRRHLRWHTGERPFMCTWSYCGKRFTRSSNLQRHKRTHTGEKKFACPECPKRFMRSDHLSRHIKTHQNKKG
The method, boiled down:
as §1

The target in another data set is ZFP SBS#801 (synthetic). An outline of the steps:
as §1

The next data set addresses T25, ZFP SBS#836 (synthetic, UniProt P08047).
T25 chain: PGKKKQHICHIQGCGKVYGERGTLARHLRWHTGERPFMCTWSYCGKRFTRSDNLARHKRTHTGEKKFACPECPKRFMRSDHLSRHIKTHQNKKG
The method, boiled down: as §1

Another data set addresses T26, ZFP SBS#848 (synthetic, UniProt P08047).
T26 chain: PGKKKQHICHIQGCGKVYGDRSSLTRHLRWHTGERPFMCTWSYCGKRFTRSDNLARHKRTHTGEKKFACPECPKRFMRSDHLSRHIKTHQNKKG
The method, boiled down: as §1

For a further data set, the target named is T27, ZFP SBS#674 (synthetic).
T27 chain: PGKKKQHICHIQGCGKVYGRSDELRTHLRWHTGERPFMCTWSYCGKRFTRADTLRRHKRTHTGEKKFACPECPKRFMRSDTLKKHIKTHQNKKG
An outline of the steps:
as §1

ZFP SBS#801 (synthetic), sequence (chain, as listed by the source): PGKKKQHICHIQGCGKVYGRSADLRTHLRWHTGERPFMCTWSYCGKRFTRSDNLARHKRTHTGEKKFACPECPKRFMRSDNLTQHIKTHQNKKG
ZFP SBS#673 (synthetic), sequence (chain, as listed by the source): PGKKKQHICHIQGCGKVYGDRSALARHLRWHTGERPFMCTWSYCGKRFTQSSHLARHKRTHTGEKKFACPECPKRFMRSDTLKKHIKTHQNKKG

B1: GAGGTGGGCT (dsDNA)
DNA 1: GAGGTGGGCT
DNA 2: AGCCCACCTC
B1 came in with a dissociation constant (Kd) with ZFP SBS#842 of 5.4 nM.

B2: TCAGTGGTAT (dsDNA)
DNA 1: TCAGTGGTAT
DNA 2: ATACCACTGA
Regarding B2, the Kd in the data set with ZFP SBS#887 turned out to be 23.8 nM; with ZFP SBS#891, 18.5 nM; with ZFP SBS#894 it was 6.15 nM; with ZFP SBS#888 it was 14 nM.

B3: GGGGGGGGGG (dsDNA)
DNA 1: GGGGGGGGGG
DNA 2: CCCCCCCCCC
With B3, the Kd in the data set with ZFP SBS#588 turned out to be 30 nM.

B4: GACGTGGAGG (dsDNA)
DNA 1: GACGTGGAGG
DNA 2: CCTCCACGTC
B4: the Kd in the data set with ZFP SBS#670 was 0.57 nM.

B5: GCGGGTGTCT (dsDNA)
DNA 1: GCGGGTGTCT
DNA 2: AGACACCCGC
Regarding B5, binding with ZFP SBS#673 was characterised by a dissociation constant (Kd) of 48.3 nM.

B6: GCGGCCGCG (dsDNA)
DNA 1: GCGGCCGCG
DNA 2: CGCGGCCGC
Turning to B6, the Kd in the data set with ZFP SBS#278 is 190 nM; in the data set with ZFP SBS#277 it was 107 nM; in the data set with ZFP SBS#279, 260 nM; in the data set with ZFP SBS#280, 160 nM; with ZFP SBS#281, 225 nM; with ZFP SBS#252, 100 nM. This molecule also showed a Kd in the data set with ZFP SBS#276 of 90 nM.

B7: GCGGAGGACC (dsDNA)
DNA 1: GCGGAGGACC
DNA 2: GGTCCTCCGC
B7: the Kd in the data set with ZFP SBS#828 worked out at 0.1 nM; with ZFP SBS#829, 0.52 nM.

B8: TGGTTGGTAT (dsDNA)
DNA 1: TGGTTGGTAT
DNA 2: ATACCAACCA
As to B8, the Kd in the data set with ZFP SBS#595 stood at 73.3 nM.

B9: CAGGCTGTGG (dsDNA)
DNA 1: CAGGCTGTGG
DNA 2: CCACAGCCTG
Turning to B9, binding in the data set with ZFP SBS#850 was characterised by a dissociation constant (Kd) of 17 nM.

B10: TCGGACGTGG (dsDNA)
DNA 1: TCGGACGTGG
DNA 2: CCACGTCCGA
For the molecule B10, in the data set with ZFP SBS#672, binding was put at a Kd of 24 nM.

B11: GAGGAGGTGA (dsDNA)
DNA 1: GAGGAGGTGA
DNA 2: TCACCTCCTC
For the molecule B11, the Kd with ZFP SBS#817 turned out to be 0.31 nM; with ZFP SBS#884, 0.15 nM; in the data set with ZFP SBS#897, 0.07 nM.

B12: GTGGAGGCCA (dsDNA)
DNA 1: GTGGAGGCCA
DNA 2: TGGCCTCCAC
B12 gave a Kd with ZFP SBS#668 of 1.13 nM.

B13: GGGGAGGATC (dsDNA)
DNA 1: GGGGAGGATC
DNA 2: GATCCTCCCC
Take B13: the results for the dissociation constant (Kd) in the data set with ZFP SBS#527, with ZFP SBS#606 and in the data set with ZFP SBS#528 were 2 nM, 0.2 nM and 10 nM, respectively.

B14: AAGGAGTCGC (dsDNA)
DNA 1: AAGGAGTCGC
DNA 2: GCGACTCCTT
As for B14, in the data set with ZFP SBS#801, the Kd was 0.85 nM.

B15: GGGGAGGCCC (dsDNA)
DNA 1: GGGGAGGCCC
DNA 2: GGGCCTCCCC
With B15, the equilibrium dissociation constant (Kd) in the data set with ZFP SBS#836 came out at 24.2 nM; in the data set with ZFP SBS#848 it was 49.5 nM.

B16: GCGGCGTCGG (dsDNA)
DNA 1: GCGGCGTCGG
DNA 2: CCGACGCCGC
Turning to B16, in the data set with ZFP SBS#674, the affinity, expressed as Kd, was 27.5 nM.

These data come from patent publication US20030068675, “Position dependent recognition of GNN nucleotide triplets by zinc fingers” (published 2003).
